Measurements published in the supplement of paper PMC6757056.
± gives the standard deviation of the averaged measurements.

B1: library; a variant is named by its letters at N, in order (parent)
chain: GCUGUCACCGGUGUAUUACCCUAGUGGUCGACCGGUCUGAUGAGUCUNNNNNNAGACGAAACAGC

How the values were obtained:
hypoxanthine [1] = variants of: B1; assay: FACS-Seq fitted mean relative fluorescence mCherry/BFP without ligand (log10 relative fluorescence); ligand: hypoxanthine (xanthine aptamer); higher = higher reporter protein expression; conditions: HEK293T, ligand present: no
Outline: (§1)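 With or without ligand for 48 h, enriched HEK293T libraries carrying a lentiviral ribozyme-switch mCherry reporter and EF1α-BFP were sorted into 6 mCherry/BFP bins. Bin genomic DNA was amplified by PCR, barcoded and sequenced on MiSeq. Fluorescence was taken from normal fits to the resulting bin counts. Each fitted mean of log10(mCherry/BFP) was scaled to five spiked-in control ribozymes.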

hypoxanthine [2] = variants of: B1; assay: normalized RNA/DNA level with ligand (relative to sTRSVctl = 100) (log10 (% of sTRSVctl)); ligand: hypoxanthine (xanthine aptamer); higher = less ribozyme self-cleavage, higher mRNA level; conditions: ligand concentration (+) RNA-Seq: 5 mM, HEK293T, reporter: mCherry (pCS4076), ligand present: yes
Outline: (§2)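 RNA level was computed as RNA reads over DNA reads divided by a spiked-in non-cleaving sequence or by the top sequences, then scaled and log-transformed. Scaling was ×100 with log10, the top group was 25 sequences, and the threshold was ≥100 DNA reads. The reads came from HEK293T cells transfected at 4 µg per 6-well well with ribozyme switch library plasmids (mCherry, or eGFP in some ligand experiments). Total RNA was extracted with EDTA 72 h after transfection, with any ligand added 1 h before it.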

hypoxanthine [3] = variants of: B1; assay: normalized RNA/DNA level without ligand (relative to sTRSVctl = 100) (log10 (% of sTRSVctl)); ligand: hypoxanthine (xanthine aptamer); higher = less ribozyme self-cleavage, higher mRNA level; conditions: HEK293T, reporter: mCherry (pCS4076), ligand present: no
Outline: as §2

hypoxanthine [4] = variants of: B1; assay: FACS-Seq fitted mean relative fluorescence mCherry/BFP with ligand (log10 relative fluorescence); ligand: hypoxanthine (xanthine aptamer); ligand concentration (+) FACS-Seq: 5 mM; higher = higher reporter protein expression; conditions: HEK293T, ligand present: yes
Outline: as §1

| Variant | FACS-Seq fitted mean (log10) (hypoxanthine [1]) | normalized RNA/DNA level with ligand (log10) (hypoxanthine [2]) | normalized RNA/DNA level without ligand (log10) (hypoxanthine [3]) | FACS-Seq fitted mean (log10) (hypoxanthine [4]) |
| --- | --- | --- | --- | --- |
| ACAUGU | 0.399 ± 0.057 | 1.91 ± 0.052 | 1.65 ± 0.061 | 0.567 ± 0.024 |
| ACAUGG | 0.335 ± 0.022 | 1.87 ± 0.035 | 1.29 ± 0.027 | 0.631 ± 0.1 |
| ACAUGA | 0.3098 ± 0.0019 | 1.91 ± 0.019 | 1.66 ± 0.026 | 0.509 ± 0.021 |
| CCAUGG | 0.39 ± 0.0048 | 1.85 ± 0.07 | 1.47 ± 0.018 | 0.611 ± 0.053 |
| UCCCAC | 0.0771 ± 0.00054 | 1.894 ± 0.014 | 1.56 ± 0.017 | 0.177 ± 0.043 |
| UCCCAG | 0.261 ± 0.0092 | 1.84 ± 0.0087 | 1.35 ± 0.023 | 0.506 ± 0.016 |
| ACCGCG | 0.331 ± 0.028 | 1.826 ± 0.015 | 1.5 ± 0.097 | 0.608 ± 0.026 |
| ACCGCC | 0.708 ± 0.051 | 1.938 ± 0.0023 | 1.879 ± 0.0089 | 0.737 ± 0.025 |
| UCCGAG | 0.3183 ± 0.002 | 1.82 ± 0.054 | 1.38 ± 0.049 | 0.517 ± 0.0072 |
| UCGCAA | 0.477 ± 0.093 | 1.9 ± 0.032 | 1.6 ± 0.06 | 0.599 ± 0.058 |
| UCGCAG | 0.221 ± 0.04 | 1.918 ± 0.015 | 1.65 ± 0.078 | 0.46 ± 0.083 |
| CCGGAC | 0.196 ± 0.035 | 2 ± 0.05 | 1.79 ± 0.077 | 0.439 ± 0.041 |
| CCGGAG | 0.0637 ± 0.015 | 1.86 ± 0.11 | 1.36 ± 0.11 | 0.573 ± 0.039 |
| CCGGAA | 0.279 ± 0.013 | 1.91 ± 0.027 | 1.71 ± 0.044 | 0.1512 ± 0.00072 |
| GCGACG | 0.442 ± 0.017 | 1.81 ± 0.021 | 1.3 ± 0.099 | 0.666 ± 0.035 |
| GCGACA | 0.145 ± 0.041 | 1.888 ± 0.012 | 1.57 ± 0.04 | 0.28 ± 0.021 |
| GCGACC | 0.07588 ± 0.00049 | 1.88 ± 0.025 | 1.52 ± 0.038 | 0.5 ± 0.093 |
| CCGCAG | 0.345 ± 0.031 | 1.82 ± 0.072 | 1.39 ± 0.032 | 0.638 ± 0.042 |

| Variant | FACS-Seq fitted mean (log10) (hypoxanthine [1]) | normalized RNA/DNA level with ligand (log10) (hypoxanthine [2]) | normalized RNA/DNA level without ligand (log10) (hypoxanthine [3]) | FACS-Seq fitted mean (log10) (hypoxanthine [4]) |
| --- | --- | --- | --- | --- |
| CCCUAA | 0.693 ± 0.022 | 1.94 ± 0.022 | 1.907 ± 0.011 | 0.837 ± 0.06 |
| GCGAAG | -0.383 ± 0.014 | 1.46 ± 0.12 | 0.925 ± 0.14 | 0.417 ± 0.06 |
| GCGAAU | -0.142 ± 0.009 | 1.833 ± 0.015 | 1.417 ± 0.013 | 0.291 ± 0.022 |
| GCGAAC | 0.0198 ± 0.0047 | 1.711 ± 0.0065 | 1.13 ± 0.044 | 0.61 ± 0.033 |
| GCGAAA | 0.172 ± 0.045 | 1.878 ± 0.0072 | 1.49 ± 0.019 | 0.404 ± 0.021 |
| ACCUGA | 0.156 ± 0.046 | 1.96 ± 0.021 | 1.79 ± 0.049 | 0.323 ± 0.057 |
| ACCUGG | 0.3055 ± 0.0017 | 1.914 ± 0.011 | 1.55 ± 0.021 | 0.817 ± 0.071 |
| ACGCAG | -0.302 ± 0.02 | 1.58 ± 0.041 | 1.09 ± 0.044 | 0.377 ± 0.039 |
| ACGCAU | 0.3211 ± 0.00042 | 1.79 ± 0.021 | 1.42 ± 0.032 | 0.534 ± 0.042 |
| ACGCAA | 0.184 ± 0.18 | 1.88 ± 0.022 | 1.55 ± 0.039 | 0.149 ± 0.02 |
| ACCAUU | 0.187 ± 0.05 | 1.971 ± 0.015 | 1.839 ± 0.007 | 0.395 ± 0.049 |
| ACCAUA | -0.27 ± 0.052 | 1.85 ± 0.049 | 1.849 ± 0.01 | -0.201 ± 0.13 |
| GCAUGG | 0.196 ± 0.083 | 1.83 ± 0.052 | 1.33 ± 0.063 | 0.701 ± 0.049 |
| GCAUGC | -0.393 ± 0.035 | 1.926 ± 0.01 | 1.74 ± 0.14 | -0.314 ± 0.05 |
| ACAUUC | 0.36 ± 0.034 | 1.979 ± 0.0095 | 1.92 ± 0.062 | 0.421 ± 0.02 |
| ACGAUG | 0.311 ± 0.018 | 1.734 ± 0.013 | 1.23 ± 0.036 | 0.629 ± 0.079 |
| ACGAUA | 0.143 ± 0.0029 | 1.87 ± 0.03 | 1.582 ± 0.013 | 0.508 ± 0.011 |
| UCGCCU | -0.0175 ± 0.065 | 2.036 ± 0.016 | 1.89 ± 0.062 | 0.035 ± 0.011 |
